Measured values taken from patent US20250152746A1, “BASE EDITING OF ANGPTL3 AND METHODS OF USING SAME FOR TREATMENT OF DISEASE” (Verve Therapeutics, Inc., priority 2020, published 2025).
Substitutions are numbered along the chain they refer to. In the oligonucleotide strings, read from the 5' end, every base follows the letter of its sugar. An asterisk marks phosphorothioate; unmarked linkages are phosphodiester. Other units and linkages are bracketed, terminal groups are in braces. A string of capitals states the bases alone. m = 2'-O-methyl; r = 2'-OH (RNA)

B1: GA185: PCSK9 gRNA; protospacer AGACATGCAGGATCTTGGTG (SEQ ID NO: 179) (nucleic acid)
guide: mA*mG*mA*rCrArUrGrCrArGrGrArUrCrUrUrGrGrUrGrGrUrUrUrUrArGrArGrCrUrArGrArArArUrArGrCrArArGrUrUrArArArArUrArArGrGrCrUrArGrUrCrCrGrUrUrArUrCrArArCrUrUrGrArArArArArGrUrGrGrCrArCrCrGrArGrUrCrGrGrUrGrCrU*mU*mU*mU
B2: GA183: PCSK9 gRNA; protospacer CTACGTGGTGGTGCTGAAGG (SEQ ID NO: 177) (nucleic acid)
guide: mC*mU*mA*rCrGrUrGrGrUrGrGrUrGrCrUrGrArArGrGrGrUrUrUrUrArGrArGrCrUrArGrArArArUrArGrCrArArGrUrUrArArArArUrArArGrGrCrUrArGrUrCrCrGrUrUrArUrCrArArCrUrUrGrArArArArArGrUrGrGrCrArCrCrGrArGrUrCrGrGrUrGrCrU*mU*mU*mU
B3: GA186: PCSK9 gRNA; protospacer CTCATCTTCACCAGGAAGCC (SEQ ID NO: 180) (nucleic acid)
guide: mC*mU*mC*rArUrCrUrUrCrArCrCrArGrGrArArGrCrCrGrUrUrUrUrArGrArGrCrUrArGrArArArUrArGrCrArArGrUrUrArArArArUrArArGrGrCrUrArGrUrCrCrGrUrUrArUrCrArArCrUrUrGrArArArArArGrUrGrGrCrArCrCrGrArGrUrCrGrGrUrGrCrU*mU*mU*mU
B4: GA182: PCSK9 gRNA; protospacer CACCTACGTGGTGGTGCTGA (SEQ ID NO: 176) (nucleic acid)
guide: mC*mA*mC*rCrUrArCrGrUrGrGrUrGrGrUrGrCrUrGrArGrUrUrUrUrArGrArGrCrUrArGrArArArUrArGrCrArArGrUrUrArArArArUrArArGrGrCrUrArGrUrCrCrGrUrUrArUrCrArArCrUrUrGrArArArArArGrUrGrGrCrArCrCrGrArGrUrCrGrGrUrGrCrU*mU*mU*mU
B5: GA184: PCSK9 gRNA; protospacer ATGGAAGACATGCAGGATCT (SEQ ID NO: 178) (nucleic acid)
guide: mA*mU*mG*rGrArArGrArCrArUrGrCrArGrGrArUrCrUrGrUrUrUrUrArGrArGrCrUrArGrArArArUrArGrCrArArGrUrUrArArArArUrArArGrGrCrUrArGrUrCrCrGrUrUrArUrCrArArCrUrUrGrArArArArArGrUrGrGrCrArCrCrGrArGrUrCrGrGrUrGrCrU*mU*mU*mU
B6: GA084: PCSK9 gRNA for ABE8.8 splice site editing, Human/Cyno (nucleic acid)
guide: CCTCTTCACCTGCTCCTGAGGTTTTAGAGCTAGAAATAGCAAGTTAAAATAAGGCTAGTCCGTTATCAACTTGAAAAAGTGGCACCGAGTCGGTGCTTTT
modifications: 2'-O-methyl at 1, 2, other sugars and backbone not given here; further chemistry not fully specified
notes: PCSK9 gRNA for ABE8.8 splice site editing, Human/Cyno
B7: GA090: PCSK9 gRNA for ABE8.8 splice site editing, Human/Cyno (nucleic acid)
guide: B6 guide with C1G, T3A, C4G, T5G, C7G, T11G, G12T, C13G, T14G, A19C
modifications: listed as RNA; modified_base 1: mod_base = OTHER; note = 2'-O-Methyl-guanosine phosphorothioate; modified_base 2: mod_base = OTHER; note = 2'-O-Methyl-cytidine phosphorothioate; modified_b
notes: as for B6
B8: GA078: PCSK9 gRNA for ABE8.8 splice site editing, Human/Cyno (nucleic acid)
guide: AGCACCTACCTCGGGAGCTGGTTTTAGAGCTAGAAATAGCAAGTTAAAATAAGGCTAGTCCGTTATCAACTTGAAAAAGTGGCACCGAGTCGGTGCTTTT
modifications: listed as RNA; note = Description of Combined DNA/RNA Molecule: Synthetic oligonucleotide; modified_base 1: mod_base = OTHER; note = 2'-O-Methyl-adenosine phosphorothioate; modified_base
notes: as for B6
B9: GA085: PCSK9 gRNA for ABE8.8 splice site editing, Human/Cyno (nucleic acid)
guide: GCCTCTTCACCTGCTCCTGAGTTTTAGAGCTAGAAATAGCAAGTTAAAATAAGGCTAGTCCGTTATCAACTTGAAAAAGTGGCACCGAGTCGGTGCTTTT
modifications: listed as RNA; modified_base 1: mod_base = OTHER; note = 2'-O-Methyl-guanosine phosphorothioate; modified_base 2: mod_base = OTHER; note = 2'-O-Methyl-cytidine phosphorothioate; modified_b
notes: as for B6
B10: GA075: PCSK9 gRNA for ABE8.8 splice site editing, Human/Cyno (nucleic acid)
guide: TTGGAAAGACGGAGGCAGCCGTTTTAGAGCTAGAAATAGCAAGTTAAAATAAGGCTAGTCCGTTATCAACTTGAAAAAGTGGCACCGAGTCGGTGCTTTT
modifications: listed as RNA; modified_base 1: mod_base = OTHER; note = 2'-O-Methyl-uridine phosphorothioate; modified_base 2: mod_base = OTHER; modified_base
notes: as for B6
B11: GA082: PCSK9 gRNA for ABE8.8 splice site editing, Human/Cyno (nucleic acid)
guide: CTTACCTGCCCCATGGGTGCGTTTTAGAGCTAGAAATAGCAAGTTAAAATAAGGCTAGTCCGTTATCAACTTGAAAAAGTGGCACCGAGTCGGTGCTTTT
modifications: listed as RNA; modified_base 1: mod_base = OTHER; note = 2'-O-Methyl-cytidine phosphorothioate; modified_base 2: mod_base = OTHER; note = 2'-O-Methyl-uridine phosphorothioate; modified_bas
notes: as for B6
B12: GA086: PCSK9 gRNA for ABE8.8 splice site editing, Human/Cyno (nucleic acid)
guide: B11 guide with C1T, T3C, C10T, A13T, T14G, G15A, T18G
modifications: listed as RNA; modified_base 1: mod_base = OTHER; note = 2'-O-Methyl-uridine phosphorothioate; modified_base 2: mod_base = OTHER; modified_base
notes: as for B6
B13: GA083: PCSK9 gRNA for ABE8.8 splice site editing, Human/Cyno (nucleic acid)
guide: UAAGGCCCAAGGGGGCAAGCGTTTTAGAGCTAGAAATAGCAAGTTAAAATAAGGCTAGTCCGTTATCAACTTGAAAAAGTGGCACCGAGTCGGTGCTTTT
modifications: 2'-O-methyl at 1, 2, other sugars and backbone not given here; further chemistry not fully specified
notes: as for B6
B14: GA076: PCSK9 gRNA for ABE8.8 splice site editing, Human/Cyno (nucleic acid)
guide: GAAAGACGGAGGCAGCCTGGGTTTTAGAGCTAGAAATAGCAAGTTAAAATAAGGCTAGTCCGTTATCAACTTGAAAAAGTGGCACCGAGTCGGTGCTTTT
modifications: 2'-O-methyl at 1, 2, other sugars, backbone and T or U not given here; further chemistry not fully specified
notes: as for B6
B15: GA089: PCSK9 gRNA for ABE8.8 splice site editing, Human/Cyno (nucleic acid)
guide: CCCCAGGCTGCAGCTCCCACGTTTTAGAGCTAGAAATAGCAAGTTAAAATAAGGCTAGTCCGTTATCAACTTGAAAAAGTGGCACCGAGTCGGTGCTTTT
modifications: 2'-O-methyl at 1, 2, other sugars and backbone not given here; further chemistry not fully specified
notes: as for B6

The molecules below were run on PCSK9 gene (assay: PCSK9 gRNA/SpCas9 editing in primary cynomolgus hepatocytes (Tables 2, 22)). Conditions: 100 ng/RNA/mL; SpCas9 mRNA MS002 1:1 by weight.
Assay type: cell-based, cynomolgus monkey

Row | Molecule | Cyno Primary Hepatocyte Editing % 100
1 | B1 | 1.14%
2 | B2 | 2.87%
3 | B3 | 1.96%
4 | B4 | 1.55%
5 | B5 | 2.90%

Same assay, conditions: 500 ng/RNA/mL; SpCas9 mRNA MS002 1:1 by weight

Row | Molecule | Cyno Primary Hepatocyte Editing % 500
6 | B1 | 7.75%
7 | B2 | 15.99%
8 | B3 | 7.59%
9 | B4 | 6.14%
10 | B5 | 10.54%

Same assay, conditions: 2500 ng/RNA/mL; SpCas9 mRNA MS002 1:1 by weight

Row | Molecule | Cyno Primary Hepatocyte Editing % 2500
11 | B1 | 20.29%
12 | B2 | 39.56%
13 | B3 | 33.48%
14 | B4 | 22.89%
15 | B5 | 31.87%

The molecules below were run on PCSK9 gene splice site (assay: not given). Conditions: not given.
Assay type: cell-based, human
Protocol: PCSK9 gRNAs were co-transfected with an equivalent amount of in vitro transcribed ABE8.8 mRNA MA002 (1:1 ratio by weight) into primary hepatocytes and processed as described in detailed methods. In one set of experiments, extracted genomic DNA was analyzed for base editing of the target splice site with next-generation sequencing of PCR amplicons generated around the target sites. Samples were prepared using the Nextera XT DNA library preparation kit (Illumina) according to the manufacturer's protocol. Briefly, two rounds of PCR were performed first to amplify the region of interest and second to add DNA sequences required for next generation sequencing and sample identification to the initial product. The final amplicon was sequenced on the Illumina MiSeq instrument according to the manufacturer's protocol.
Similarly, three gRNAs (GA098, GA099, GA100) were synthesized matching the 5′-[…]-3′ (SEQ ID NO: 15) (GA091) human protospacer sequence, as well as four gRNAs (GA067/GA101, GA102, GA103, GA347) matching the 5′-[…]-3′ (SEQ ID NO: 14) (GA067) cynomolgus protospacer sequence, but with more extensive chemical modifications of various kinds (Table 1). GA066 and GA095 contain the same chemical composition and modification pattern, as do GA067 and GA101 with one another. […] Each of the gRNAs described in Table 8, with an equivalent amount of in vitro transcribed ABE8.8 mRNA MA002 (1:1 ratio by weight), were co-transfected into primary human hepatocytes and primary cynomolgus hepatocytes via MessengerMax reagent, using various dilutions to assess for editing activity at different concentrations of test article. Three days after transfection, genomic DNA was harvested from the hepatocytes, and then assessed for base editing of the target splice site with next-generation sequencing.
Modifications and/or truncations to either the spacer or tracr portion of the gRNA was assessed by alteration of the GA066 spacer (5′-[…]-3′ (SEQ ID NO: 13)) (Table 12). […] Each of the gRNAs with an equivalent amount of in vitro transcribed ABE8.8 mRNA (1:1 ratio by weight) were co-transfected into primary human hepatocytes and primary cynomolgus hepatocytes and processed as described in detailed methods. […]

Row | Molecule | Human Primary Hepatocytes-splice site editing % 1250 ng/mL | Human Primary Hepatocytes-splice site editing % 2500 ng/mL | Human Primary Hepatocytes-splice site editing % 5000 ng/mL
16 | B6 | 4.9% | 7.6% | 8.6%
17 | B7 | 0.3% | 0.5% | 0.4%
18 | B8 | 6.5% | 10.0% | 12.6%
19 | B9 | 1.2% | 1.8% | 2.4%
20 | B10 | 1.8% | 3.1% | 5.5%
21 | B11 | 5.6% | 9.6% | 9.8%
22 | B12 | 2.9% | 4.9% | 5.7%
23 | B13 | 0.2% | 0.2% | 0.2%
24 | B14 | 1.6% | 3.9% | 4.9%
25 | B15 | 5.4% | 14.1% | 18.1%

Each molecule was assayed on PCSK9 gene (assay: PCSK9 gRNA/SpCas9 editing in primary human hepatocytes (Tables 2, 4)). Conditions: 100 ng/RNA/mL; SpCas9 mRNA MS002 1:1 by weight.
Assay type: cell-based
Outline: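 Primary human hepatocytes co-transfected with PCSK9 gRNA plus SpCas9 mRNA (1:1 by weight) at 2500, 500 or 100 ng RNA/mL, or 2500–250 ng/mL for tracr-modified guides. Editing at the target site read by amplicon next-generation sequencing of extracted genomic DNA.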

Row | Molecule | Human Primary Hepatocyte Editing % 100
26 | B1 | 1.6%
27 | B2 | 2.21%
28 | B3 | 0.79%
29 | B4 | 0.95%
30 | B5 | 2.65%

Same assay, conditions: 500 ng/RNA/mL; SpCas9 mRNA MS002 1:1 by weight

Row | Molecule | Human Primary Hepatocyte Editing % 500
31 | B1 | 10.91%
32 | B2 | 9.89%
33 | B3 | 3.57%
34 | B4 | 4.49%
35 | B5 | 8.29%

Same assay, conditions: 2500 ng/RNA/mL; SpCas9 mRNA MS002 1:1 by weight

Row | Molecule | Human Primary Hepatocyte Editing % 2500
36 | B1 | 27.98%
37 | B2 | 32.35%
38 | B3 | 12.01%
39 | B4 | 17.44%
40 | B5 | 29.55%
